Earlier results in paper PMC2884013.

Biological target: Glu78 (UniProt position 78, RISTVEHLNAA)
Test: kinetics
Conditions: Zn2+-bound wild-type enzyme

UDP-3-O-(R-3-hydroxymyristoyl)-N-acetylglucosamine deacetylase (LpxC, EcLpxC) (Escherichia coli)
pKa: 6.2 ± 0.2
